The results in this text go back to PMC7219239, “Folding-Based Electrochemical Aptasensor for the Determination of β-Lactoglobulin on Poly-L-Lysine Modified Graphite Electrodes”.

This data set has as its target T1, beta-lactoglobulin B (β-LG) (Bos taurus? (cow's milk), UniProt P02754 17-178).
T1 sequence: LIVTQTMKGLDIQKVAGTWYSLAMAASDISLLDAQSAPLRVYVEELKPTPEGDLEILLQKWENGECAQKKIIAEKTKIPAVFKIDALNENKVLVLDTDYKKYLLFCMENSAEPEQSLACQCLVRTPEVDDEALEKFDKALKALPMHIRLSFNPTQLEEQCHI
Nature of the data set: electrochemical folding-based aptasensor (DPV, MB signal-on); PBS-based buffer without MgCl2; 45 min incubation; linear 0.1-10 ng/mL, LOD 0.09 ng/mL; no Kd in the material; Measurement in PBS-based buffer without MgCl2 (wash buffer 0.1 M PBS, 150 mM NaCl, pH 7.4), 45 min; aptamer immobilized at 1 µM in 50 mM Tris, 150 mM NaCl, 2 mM MgCl2, pH 7.4; temperature not stated. To be noted: protein: commercial; chain copies: 2; label: methylene blue (3').

B1: anti-β-LG aptamer, thiolated, MB-tagged (ssDNA)
DNA: CGACGATCGGACCGCAGTACCCACCCACCAGCCCCAACATCATGCCCATCCGTGTGTG
modifications: 5'-thiol (HS); 3'-methylene blue
For the molecule B1, the binding result is “binds”.
